Paper PMC3971370 (Molecular plant, 2012)

Target: nCFP–CPK3 (Arabidopsis thaliana, UniProt Q42479 1-529)
Assay: split reporter

nCFP–CPK3, sequence (Q42479 whole entry): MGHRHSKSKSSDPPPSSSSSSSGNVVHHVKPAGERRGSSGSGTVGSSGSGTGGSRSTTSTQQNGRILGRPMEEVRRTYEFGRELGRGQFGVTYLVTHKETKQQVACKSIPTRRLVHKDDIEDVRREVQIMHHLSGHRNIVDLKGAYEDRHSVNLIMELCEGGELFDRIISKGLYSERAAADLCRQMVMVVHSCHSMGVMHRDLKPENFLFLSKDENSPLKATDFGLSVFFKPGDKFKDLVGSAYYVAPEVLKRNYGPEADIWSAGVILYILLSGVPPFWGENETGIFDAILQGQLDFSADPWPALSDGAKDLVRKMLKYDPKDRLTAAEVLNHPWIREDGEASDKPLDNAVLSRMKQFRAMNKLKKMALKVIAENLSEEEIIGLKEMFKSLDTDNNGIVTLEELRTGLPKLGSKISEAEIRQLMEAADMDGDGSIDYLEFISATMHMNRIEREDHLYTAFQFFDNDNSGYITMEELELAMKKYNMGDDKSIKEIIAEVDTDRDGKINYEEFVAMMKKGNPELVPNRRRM

B1: cCFP–TPK1–R35A/R39A (natural protein)
chain: MSSDAARTPLLPTEKIDTMAQDFNLNSRTSSSRKARLRASRSAPRGDCMYNDDVKIDEPPPHPSKIPMFSDLNPNLRRVIMFLALYLTIGTLCFYLVRDQISGHKTSGVVDALYFCIVTMTTVGYGDLVPNSSASRLLACAFVFSGMVLVGHLLSRAADYLVEKQEALLVRAFHLRQSFGPTDILKELHTNKLRYKCYATCLVLVVLFIVGTIFLVMVEKMPVISAFYCVCSTVTTLGYGDKSFNSEAGRLFAVFWILTSSICLAQFFLYVAELNTENKQRALVKWVLTRRITNNDLEAADLDEDGVVGAAEFIVYKLKEMGKIDEKDISGIMDEFEQLDYDESGTLTTSDIVLAQTTSQIQR
For B1, the “BiFC signal relative to wild-type TPK1” value was ~0.5 fold of wild type.
